Experimental findings from article doi:10.1101/2025.05.02.651988 (bioRxiv, 2025) are described below.

Broadly, the stoichiometry N is a count of units in the complex or per binding partner.

Where two headings read alike, the source gives them in different places.

Assay in all cases: cryo-EM structure
The target in series [1] is E. coli RNA polymerase σ70 subunit (E. coli, UniProt P00579 1-613).
Series [2] deals with the molecule itself.
Series [3] deals with the molecule itself. This is another data set of the same source.

E. coli RNA polymerase σ70 subunit, sequence (P00579 whole entry): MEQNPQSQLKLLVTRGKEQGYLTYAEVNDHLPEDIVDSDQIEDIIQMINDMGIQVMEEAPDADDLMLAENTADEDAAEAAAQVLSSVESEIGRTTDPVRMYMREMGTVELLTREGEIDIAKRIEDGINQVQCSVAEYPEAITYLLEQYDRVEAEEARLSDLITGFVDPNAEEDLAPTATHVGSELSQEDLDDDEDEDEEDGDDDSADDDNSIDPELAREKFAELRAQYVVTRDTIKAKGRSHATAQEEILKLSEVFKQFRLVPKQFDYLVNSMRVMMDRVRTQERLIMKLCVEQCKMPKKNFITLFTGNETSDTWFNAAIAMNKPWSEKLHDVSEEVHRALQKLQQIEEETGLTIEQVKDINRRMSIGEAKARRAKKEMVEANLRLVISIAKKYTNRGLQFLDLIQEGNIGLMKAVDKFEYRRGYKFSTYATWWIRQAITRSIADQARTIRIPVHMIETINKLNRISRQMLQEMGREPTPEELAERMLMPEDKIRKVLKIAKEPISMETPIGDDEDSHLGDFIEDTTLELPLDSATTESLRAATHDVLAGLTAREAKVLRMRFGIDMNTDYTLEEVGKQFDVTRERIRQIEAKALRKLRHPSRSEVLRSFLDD

B1: phage Mu middle operon regulator Mor (natural protein, bacteriophage Mu, UniProt P23848 1-129, looked up)
chain: MTEDLFGDLQDDTILAHLDNPAEDTSRFPALLAELNDLLRGELSRLGVDPAHSLEIVVAICKHLGGGQVYIPRGQALDSLIRDLRIWNDFNGRNVSELTTRYGVTFNTVYKAIRRMRRLKYRQYQPSLL
In the case of B1, in series [1], the binding result is reported as “binds”. In addition, the “stoichiometry N” value in the series “cryo-EM structure [2]” was 4.

B2: phage Mu late gene transcription activator C (natural protein, bacteriophage Mu, UniProt P06022 1-140, looked up)
chain: MQHDLFEHDPAIRQLIGHIDNIPAPELESRWPRSVVDLIDVLENELKRQNVSNPRELARKQAVALSCFLGGRQFYIPCGDTILTALRDDLLYCQFNGRNMEELRRQYRLSQPQIYQIIARQRKLHTRRHQPDLFSPETPK
Turning to B2, in the series “cryo-EM structure [3]”, the “stoichiometry N” value was found to be 4.
